Results on one molecule are retold here after patent US20190225662A1.

The assay concerns the target GABABR1a on mouse hippocampal neurons (cultures and slices) (mouse), Q9WV18. Kind of assay: cell-based or functional assay.

Chain of GABABR1a on mouse hippocampal neurons (cultures and slices) (mouse), Q9WV18 (Q9WV18 20-960): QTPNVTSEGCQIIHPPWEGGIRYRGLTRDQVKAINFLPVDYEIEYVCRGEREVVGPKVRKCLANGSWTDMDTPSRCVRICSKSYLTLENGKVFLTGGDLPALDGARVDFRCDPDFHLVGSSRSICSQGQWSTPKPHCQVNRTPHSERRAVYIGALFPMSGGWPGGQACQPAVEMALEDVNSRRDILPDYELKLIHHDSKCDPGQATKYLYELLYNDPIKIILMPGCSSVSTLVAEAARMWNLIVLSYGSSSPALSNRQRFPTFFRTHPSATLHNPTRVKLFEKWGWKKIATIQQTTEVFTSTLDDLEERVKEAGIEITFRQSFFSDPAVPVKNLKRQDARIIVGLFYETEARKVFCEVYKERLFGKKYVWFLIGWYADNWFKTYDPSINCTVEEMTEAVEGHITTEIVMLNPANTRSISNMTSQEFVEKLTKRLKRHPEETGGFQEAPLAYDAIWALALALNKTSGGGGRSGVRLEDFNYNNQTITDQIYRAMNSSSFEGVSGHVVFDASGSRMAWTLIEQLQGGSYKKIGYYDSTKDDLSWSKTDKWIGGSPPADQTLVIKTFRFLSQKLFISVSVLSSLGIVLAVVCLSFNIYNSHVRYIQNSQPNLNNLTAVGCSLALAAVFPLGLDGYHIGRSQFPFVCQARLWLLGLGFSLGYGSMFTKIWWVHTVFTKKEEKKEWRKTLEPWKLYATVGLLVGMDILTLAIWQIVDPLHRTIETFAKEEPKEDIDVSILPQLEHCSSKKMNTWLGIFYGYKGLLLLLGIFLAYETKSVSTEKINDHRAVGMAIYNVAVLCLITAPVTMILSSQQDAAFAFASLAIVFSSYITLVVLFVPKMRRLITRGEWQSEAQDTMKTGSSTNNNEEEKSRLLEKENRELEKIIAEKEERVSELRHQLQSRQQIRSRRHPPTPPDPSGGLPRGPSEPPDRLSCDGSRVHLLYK

B1: sAPPα (Fc cleaved), P12023 18-687 (ligand)
chain: LEVPTDGNAGLLAEPQIAMFCGKLNMHMNVQNGKWESDPSGTKTCIGTKEGILQYCQEVYPELQITNVVEANQPVTIQNWCKRGRKQCKTHTHIVIPYRCLVGEFVSDALLVPDKCKFLHQERMDVCETHLHWHTVAKETCSEKSTNLHDYGMLLPCGIDKFRGVEFVCCPLAEESDSVDSADAEEDDSDVWWGGADTDYADGGEDKVVEVAEEEEVADVEEEEADDDEDVEDGDEVEEEAEEPYEEATERTTSTATTTTTTTESVEEVVRVPTTAASTPDAVDKYLETPGDENEHAHFQKAKERLEAKHRERMSQVMREWEEAERQAKNLPKADKKAVIQHFQEKVESLEQEAANERQQLVETHMARVEAMLNDRRRLALENYITALQAVPPRPHHVFNMLKKYVRAEQKDRQHTLKHFEHVRMVDPKKAAQIRSQVMTHLRVIYERMNQSLSLLYNVPAVAEEIQDEVDELLQKEQNYSDDVLANMISEPRISYGNDALMPSLTETKTTVELLPVNGEFSLDDLQPWHPFGVDSVPANTENEVEPVDARPAADRGLTTRPGSGLTNIKTEEISEVKMDAEFGHDSGFEVRHQK
B1 displayed a reduction of the frequency of miniature excitatory postsynaptic currents (mEPSCs), 250 nM sAPPα, primary hippocampal neurons of 39%; a reduction of the frequency of miniature inhibitory postsynaptic currents (mIPSCs), 250 nM sAPPα, primary hippocampal neurons of 44%; a reduction of total presynaptic strength (S=ΔF×D), FM1-43 synaptic vesicle recycling, cultured hippocampal neurons of 57%; a reduction on mIPSC amplitude of 14%.
